Data published in the supplement of paper PMC7877785.
± gives the uncertainty stated by the source.

Assay: self-splicing fitness, log relative to wild type (ln ratio); higher = more splicing; Tetrahymena group I intron in knt gene, E. coli kanamycin selection, DiMSum; sequences stand for … in CUCUCU…GGAGGGAAAAGUUAUCAGGCAUGCACCUGGUAGCUAGUCUUUAAACCAAUAGAUUGCAUCGGUUUAAAAGGCAAGACCGUCAAAUUGCGGGAAAGGGGUCAACAGCCGUUCAGUACCAAGUCUCAGGGGAAACUUUGAGAUGGCCUUGCAAAGGGUAUGGUAAUAAGCUGACGGACAUGGUCCUAACCACGCAGCCAAGUCCUAAGUCAACAGAUCUUCUGUUGAUAUGGAUGCAGUUCACAGACUAAAUGUCGGUCGGGGAAGAUGUAUUCUUCUCAUAAGAUAUAGUCGGACCUCUCCUUAAUGGGAGCUAGCGGAUGAAGUGAUGCAACACUGGAGCCGCUGGGAACUAAUUUGUAUGCGAAAGUAUAUUGAUUAGUUUUGGAGUACUCGUGGUCG
Procedure, shortened: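 Library with all eight P1ex-region intron nucleotides randomised, intron inside the knt kanamycin-resistance gene on pET-22b(+), in E. coli BL21(DE3). Cells grew overnight at 37°C or 30°C on LB agar with or without 25 μg/mL kanamycin (plus 100 μg/mL carbenicillin, 50 μM IPTG, 0.2% rhamnose), in six replicate transformations. Pooled colonies were amplicon-sequenced on Illumina HiSeq 2500. DiMSum fitness is the error-weighted combination of wild-type-normalised replicate fold changes, kanamycin versus none.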

Sequence: UUACAGCAAUAUUACGGACA
- self-splicing fitness (ln) (30 °C): -1.02 ± 0.11
- self-splicing fitness (ln) (37 °C): -0.885 ± 0.13

Sequence: AUUUAGCAAUAUUACGUCUU
- self-splicing fitness (ln) (30 °C): -0.374 ± 0.12
- self-splicing fitness (ln) (37 °C): 0.156 ± 0.17

Sequence: ACUAAGCAAUAUUACGAAAG
- self-splicing fitness (ln) (30 °C): -1.76 ± 0.14
- self-splicing fitness (ln) (37 °C): -1.55 ± 0.16

Sequence: AUGUAGCAAUAUUACGUCGG
- self-splicing fitness (ln) (30 °C): -3.01 ± 0.35
- self-splicing fitness (ln) (37 °C): -2.18 ± 0.28

Sequence: GUAAAGCAAUAUUACGCUGC
- self-splicing fitness (ln) (30 °C): -2.97 ± 0.24
- self-splicing fitness (ln) (37 °C): -1.97 ± 0.28

Sequence: CCUCAGCAAUAUUACGCCAU
- self-splicing fitness (ln) (30 °C): -2.88 ± 0.35
- self-splicing fitness (ln) (37 °C): -1.8 ± 0.18

Sequence: CUGAAGCAAUAUUACGAUAG
- self-splicing fitness (ln) (30 °C): -0.213 ± 0.082
- self-splicing fitness (ln) (37 °C): 0.563 ± 0.11

Sequence: CAAUAGCAAUAUUACGAAGU
- self-splicing fitness (ln) (30 °C): -3.76 ± 0.15
- self-splicing fitness (ln) (37 °C): -2.64 ± 0.15

Sequence: GUCUAGCAAUAUUACGGGAU
- self-splicing fitness (ln) (30 °C): -4.48 ± 0.42
- self-splicing fitness (ln) (37 °C): -3.39 ± 0.42

Sequence: CCAGAGCAAUAUUACGAUCC
- self-splicing fitness (ln) (37 °C): -1.91 ± 0.38

Sequence: CAUCAGCAAUAUUACGGCUA
- self-splicing fitness (ln) (30 °C): -2.82 ± 0.2
- self-splicing fitness (ln) (37 °C): -1.44 ± 0.16

Sequence: GAAGAGCAAUAUUACGCCCC
- self-splicing fitness (ln) (30 °C): -1.93 ± 0.17
- self-splicing fitness (ln) (37 °C): -0.902 ± 0.18

Sequence: AACUAGCAAUAUUACGUAGG
- self-splicing fitness (ln) (30 °C): -2.36 ± 0.11
- self-splicing fitness (ln) (37 °C): -1.29 ± 0.12

Sequence: CAUGAGCAAUAUUACGUACA
- self-splicing fitness (ln) (30 °C): -3.1 ± 0.22
- self-splicing fitness (ln) (37 °C): -2.17 ± 0.3

Sequence: ACUAAGCAAUAUUACGACUC
- self-splicing fitness (ln) (30 °C): -0.352 ± 0.12
- self-splicing fitness (ln) (37 °C): 0.402 ± 0.14

Sequence: CACGAGCAAUAUUACGUCGU
- self-splicing fitness (ln) (30 °C): -2.05 ± 0.14
- self-splicing fitness (ln) (37 °C): -3.43 ± 0.24

Sequence: GCGAAGCAAUAUUACGAUCG
- self-splicing fitness (ln) (30 °C): -2.49 ± 0.31
- self-splicing fitness (ln) (37 °C): -0.964 ± 0.28

Sequence: CCGCAGCAAUAUUACGACAA
- self-splicing fitness (ln) (30 °C): -3.68 ± 0.23
- self-splicing fitness (ln) (37 °C): -2.21 ± 0.24

Sequence: ACCUAGCAAUAUUACGCAAA
- self-splicing fitness (ln) (30 °C): -2.56 ± 0.3
- self-splicing fitness (ln) (37 °C): -1.76 ± 0.18

Sequence: CCUCAGCAAUAUUACGAACG
- self-splicing fitness (ln) (30 °C): -0.86 ± 0.062
- self-splicing fitness (ln) (37 °C): -0.285 ± 0.096

Sequence: GCUAAGCAAUAUUACGCGAA
- self-splicing fitness (ln) (30 °C): -2.87 ± 0.13
- self-splicing fitness (ln) (37 °C): -1.1 ± 0.14

Sequence: AGUUAGCAAUAUUACGCUUG
- self-splicing fitness (ln) (37 °C): -1.83 ± 0.23

Sequence: AUGAAGCAAUAUUACGCCAA
- self-splicing fitness (ln) (30 °C): -0.427 ± 0.086
- self-splicing fitness (ln) (37 °C): 0.0636 ± 0.11

Sequence: UUCGAGCAAUAUUACGUAAA
- self-splicing fitness (ln) (30 °C): -2.48 ± 0.19
- self-splicing fitness (ln) (37 °C): -1.07 ± 0.16

Sequence: AAGAAGCAAUAUUACGCUUA
- self-splicing fitness (ln) (30 °C): -1.05 ± 0.12
- self-splicing fitness (ln) (37 °C): -0.977 ± 0.13

Sequence: CGUAAGCAAUAUUACGGACG
- self-splicing fitness (ln) (30 °C): -2.45 ± 0.12
- self-splicing fitness (ln) (37 °C): -1.89 ± 0.14

Sequence: GACAAGCAAUAUUACGAACU
- self-splicing fitness (ln) (30 °C): -0.214 ± 0.066
- self-splicing fitness (ln) (37 °C): 0.284 ± 0.092

Sequence: AGCCAGCAAUAUUACGCUGG
- self-splicing fitness (ln) (30 °C): -4.12 ± 0.26
- self-splicing fitness (ln) (37 °C): -2.32 ± 0.26

Sequence: CCUAAGCAAUAUUACGCCUG
- self-splicing fitness (ln) (30 °C): -3.62 ± 0.3
- self-splicing fitness (ln) (37 °C): -2.27 ± 0.3

Sequence: GUUCAGCAAUAUUACGCCAA
- self-splicing fitness (ln) (30 °C): -1.32 ± 0.21
- self-splicing fitness (ln) (37 °C): -1.72 ± 0.18

Sequence: UCAUAGCAAUAUUACGGGUC
- self-splicing fitness (ln) (30 °C): -2.94 ± 0.42
- self-splicing fitness (ln) (37 °C): -2.9 ± 0.35

Sequence: UGAAAGCAAUAUUACGAACG
- self-splicing fitness (ln) (30 °C): 0.0634 ± 0.17
- self-splicing fitness (ln) (37 °C): 0.684 ± 0.2

Sequence: UCCGAGCAAUAUUACGUAAA
- self-splicing fitness (ln) (30 °C): -2.8 ± 0.28

Sequence: GUUCAGCAAUAUUACGCAUG
- self-splicing fitness (ln) (30 °C): -0.538 ± 0.1
- self-splicing fitness (ln) (37 °C): -1.02 ± 0.13

Sequence: AAGAAGCAAUAUUACGAACC
- self-splicing fitness (ln) (30 °C): -0.581 ± 0.14
- self-splicing fitness (ln) (37 °C): -0.25 ± 0.17

Sequence: UCUAAGCAAUAUUACGUCGG
- self-splicing fitness (ln) (30 °C): 0.0423 ± 0.067
- self-splicing fitness (ln) (37 °C): 0.627 ± 0.078

Sequence: CGUAAGCAAUAUUACGGGAU
- self-splicing fitness (ln) (30 °C): -3.63 ± 0.18
- self-splicing fitness (ln) (37 °C): -3.29 ± 0.35

Sequence: CUGGAGCAAUAUUACGGUAA
- self-splicing fitness (ln) (30 °C): -2.61 ± 0.28
- self-splicing fitness (ln) (37 °C): -2.89 ± 0.25

Sequence: CCACAGCAAUAUUACGCAAA
- self-splicing fitness (ln) (30 °C): -2.03 ± 0.22
- self-splicing fitness (ln) (37 °C): -3.24 ± 0.32

Sequence: GUCAAGCAAUAUUACGCCUU
- self-splicing fitness (ln) (30 °C): -1.61 ± 0.068
- self-splicing fitness (ln) (37 °C): -0.671 ± 0.097

Sequence: GGCCAGCAAUAUUACGGCUA
- self-splicing fitness (ln) (30 °C): -0.439 ± 0.097
- self-splicing fitness (ln) (37 °C): -0.0906 ± 0.1

Sequence: GUCAAGCAAUAUUACGAGGA
- self-splicing fitness (ln) (30 °C): -3.75 ± 0.47
- self-splicing fitness (ln) (37 °C): -4.45 ± 0.45

Sequence: CCGUAGCAAUAUUACGCAGG
- self-splicing fitness (ln) (37 °C): -2.75 ± 0.48

Sequence: UGCAAGCAAUAUUACGCGUA
- self-splicing fitness (ln) (30 °C): -1.45 ± 0.18
- self-splicing fitness (ln) (37 °C): -1.57 ± 0.17

Sequence: GUAUAGCAAUAUUACGGUCA
- self-splicing fitness (ln) (30 °C): -1.5 ± 0.2
- self-splicing fitness (ln) (37 °C): -0.663 ± 0.18

Sequence: GACAAGCAAUAUUACGCUGA
- self-splicing fitness (ln) (30 °C): -2.53 ± 0.13
- self-splicing fitness (ln) (37 °C): -1.55 ± 0.11

Sequence: CCCGAGCAAUAUUACGAAGC
- self-splicing fitness (ln) (30 °C): -3.12 ± 0.26

Sequence: UACGAGCAAUAUUACGACUC
- self-splicing fitness (ln) (30 °C): -2.51 ± 0.21
- self-splicing fitness (ln) (37 °C): -2.31 ± 0.36

Sequence: CGCAAGCAAUAUUACGUUGA
- self-splicing fitness (ln) (30 °C): -2.6 ± 0.13
- self-splicing fitness (ln) (37 °C): -2.02 ± 0.15

Sequence: CCCCAGCAAUAUUACGUCCG
- self-splicing fitness (ln) (37 °C): -2.09 ± 0.28
